Source: article PMC9342783

Key:
[1] = target: membrane translocated mature FopA (Francisella tularensis outer membrane protein A) with C-terminal octa-histidine tag (F. tularensis subsp. tularensis strain SCHU S4); test: native gel or EMSA
[2] = target: membrane translocated mature FopA (Francisella tularensis outer membrane protein A) with C-terminal octa-histidine tag (F. tularensis subsp. tularensis strain SCHU S4); test: small angle X-ray scattering (SEC-SAXS)

Substance: membrane translocated mature FopA (Francisella tularensis outer membrane protein A) with C-terminal octa-histidine tag (natural protein)
- stoichiometry N [1]: 2
- stoichiometry N [2]: 2
